Key:
[1] = biological target: nitrilotriacetate monooxygenase component B from Mycobacterium thermoresistibile (Mycobacterium thermoresistibile); test: crystal structure; apo structure at 1.6 Å, space group P212121; two independent dimers in the asymmetric unit; crystals from 0.2 M magnesium chloride, 0.1 M MES pH 6.0, 20% PEG 6000 at 289 K
[2] = biological target: nitrilotriacetate monooxygenase component B from Mycobacterium thermoresistibile (Mycobacterium thermoresistibile); test: SEC; Superdex 75 26/60 in 20 mM HEPES pH 7.0, 300 mM NaCl, 5% glycerol, 1 mM TCEP

stoichiometry N [1]: 2
stoichiometry N [2]: 2
Substance: nitrilotriacetate monooxygenase component B from Mycobacterium thermoresistibile (enzyme)

Source: article PMC3169409
